Test results as given in the RNAGym collection of RNA variant scans (doi:10.1073/pnas.2313332121).
Fewer inactive variants are shown than the library holds.

B1: TPR 5TU (parent)
chain: GGAUCUUCUCGAUCUAACAAAAAAGACAAAUCUGCCACAAAGCUUGAGAGCAUCUUCGGAUGCAGAGGCGGCAGCCUUCGGUGGCGCGAUAGCGCCAACGUUCUCAACUAUGACACGCAAAACGCGUGCUCCGUUGAAUGGAGUUUAUCAUG

Variants of: B1
Experiment: polymerase ribozyme fitness, log enrichment relative to wild type (log ratio); higher = more active; in vitro selection for triplet polymerase activity
Summary of the method: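 After PCR construction and transcription, each subunit's mutant library from a heterodimeric triplet polymerase ribozyme was annealed with a biotinylated primer, the partner subunit and triplets. Incubation was frozen, at −7 °C, and extended constructs were gel-excised, bound to streptavidin beads and amplified by RT-PCR, in one selection round done in triplicate. Fitness is the logarithm of a genotype's enrichment divided by that of the wild type, from inverse-variance-weighted replicate averages of Illumina-sequenced inputs and outputs. The base of the logarithm is 2, and genotypes needed ≥10 input reads and ≥1 read per output.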

| Variant | polymerase ribozyme fitness (log ratio) |
| --- | --- |
| C38U U101G U135A | -0.00114 |
| A39G C85U U101C | -2.58 |
| C38U C105U C118G U139G | -1.24 |
| A39U A49C U55A C87U C116G | ≤ -4.2 |
| C38U A73G U101A | -0.277 |
| C38U C95G A120U G152A | -3.59 |
| C38A U82A G84U A120C | -1.37 |
| A37C G86U A120U U146G | -3.9 |
| A39U G62A | -2.58 |
| A39C A49G | -3.48 |
| C38A G50U | -0.722 |
| A39C C87U | -2.12 |
| A37U A52C C116G | -2.94 |
| C38U U45G U55A A60U G71A | ≤ -4.2 |
| A39C G86U | -4.18 |
| C38U G81A C87G C95U C96A A97G A138C G141U | ≤ -4.2 |
| A39C A40G A49C G80U G86U A106C A150C | ≤ -4.2 |
| A37G A41C U53C C85U U104C G128C C149G | ≤ -4.2 |
| C38U G46U G84A U127G G143C | ≤ -4.2 |
| A39U G83C | -2.01 |
| A37C G70U C96G | ≤ -4.2 |
| A39G C54U C85U | -1.83 |
| C38G A98U A122C G141C | -2.06 |
| A39G A47C | -1.49 |

| Variant | polymerase ribozyme fitness (log ratio) |
| --- | --- |
| C38G G50C G65U G84A C96U C99U U111G G143A | ≤ -4.2 |
| A39C C87U G94U U101C A147U | ≤ -4.2 |
| A37C G86C | -3.09 |
| C38U C105G G141U | -1.54 |
| A37G A52G C69A U144G | -4.11 |
| A39G A52U U56A C75U U78G U104A U144C | ≤ -4.2 |
| C38U A47C C93A C125U | -3.16 |
| C38U G84A U139A | ≤ -4.2 |
| A39C G81A G94U A106G A110C G140U | -4.04 |
| A37G A41G C79A G92U C95U C123U | ≤ -4.2 |
| C38U C57G G58A C116A A138G | ≤ -4.2 |
| C38U G42C A52U U61G G133U | ≤ -4.2 |
| A37C A49C G124A U130G | ≤ -4.2 |
| A37C G83A | -0.102 |
| A39U A113C | -4.11 |
| C36U C114U | -3.21 |
| C38U A40G | -2.26 |
| A37U G94A U104G | -2.92 |
| A39G G42C A64U G84C C85U C103G C108U G117C A147G | ≤ -4.2 |
| C38G C51U C95A C99G A106U C125A U134A | ≤ -4.2 |
| C38U G62C G94U | -3.3 |
| C38U A49C A66G A138U U144C | ≤ -4.2 |
| A39G A91G | -3.4 |
| C38U U134G | -2.53 |

| Variant | polymerase ribozyme fitness (log ratio) |
| --- | --- |
| C38U | 0.0316 |
| C38A | -0.151 |
| C38G | -0.296 |
| C38U A39C C95U | -2.34 |
| A39G C99G C108U | ≤ -4.2 |
| C38U C57A G74U G83C | ≤ -4.2 |
| A37C U56A | -0.806 |
| A39C A64G C75G C85U G124A | ≤ -4.2 |
| C38A U109A C114U C116G | ≤ -4.2 |
| A39U A52G U61A A73U A115U A150C | ≤ -4.2 |
| C38G C85A G94U C103G | -2.31 |
| A37G C131U U134C | -1.56 |
| C36U G58A A119G G140A | -4.18 |
| A39U G141U | -1.56 |
| A37G C38G G83U C118A C123U | -4.05 |
| C38A A89G C95G G124A | -2.76 |
| C38U C76U C85G C96A C103A C114U C132U | -4.19 |
| C38A U61A C96G | -2.38 |
| C38G C75G G84C C103A | ≤ -4.2 |
| C38U U45A U55C U101G | ≤ -4.2 |
| C36U C96U A142C | -2.88 |
| C38A G58A A60G C93U C95A C125G | -3.67 |
| C36U G92C | -1.37 |
| A39C A142U | -3.34 |

| Variant | polymerase ribozyme fitness (log ratio) |
| --- | --- |
| A39G U55C U56A C116U U139G U144G | -2.27 |
| C36U C51G A107U G128A U139G | ≤ -4.2 |
| A37G A60U G81A A97C A137G | -4.19 |
| C38A U56A A137G | -2.08 |
| A39C A41C G65A C96A C103A U111G | ≤ -4.2 |
| A37U A39G A49U G81C A91C G94A U146A | ≤ -4.2 |
| C38U G48A A60C C72G C96A C99U C114G U139G U148G | ≤ -4.2 |
| C38G C96A C114U | -2.91 |
| A39U C93U | -3.36 |
| A37G U56A A97G | -2.85 |
| A39G A47C C72A C103G C116U G128A | ≤ -4.2 |
| A37C C54G G92U A97U A119U | ≤ -4.2 |
| C38G C95A A150U | -0.802 |
| C38G C57A A115C U144G | -1.02 |
| A39G G50C G65C A110G A120G | ≤ -4.2 |
| A37C A41C C72A C93U C125U | ≤ -4.2 |
| A37G C123U | -1.8 |
| A37U U44A G86C | ≤ -4.2 |
| A39C G94A | -2.88 |
| A39U A60U G70A | ≤ -4.2 |
| A37C C38U G71A U109G C123G | ≤ -4.2 |
| A39U C63U C75G C76A C87G C105U C129U G143C | ≤ -4.2 |
| A37G C87U | -2.16 |
| A37C C87U | -0.492 |

| Variant | polymerase ribozyme fitness (log ratio) |
| --- | --- |
| C38U C54A C57G G143A | -4.08 |
| C38U A52G A110C | ≤ -4.2 |
| C36U A142C | -2.05 |
| C38U G117U | 0.325 |
| A37C C57G C76G A98G A138C G140U | -3.42 |
| C36U A47G G68C G133C | ≤ -4.2 |
| A37C G86U C87U C108U A113G G117A | ≤ -4.2 |
| C36U G46A A64G G80C | ≤ -4.2 |
| C38U U53A U61A | -1.44 |
| C36U C87U G143C | -3.81 |
| C38U G70A | -2.9 |
| A39C C149U | -2.97 |
| A37G A40U A115G A142U | ≤ -4.2 |
| A37U C72A C95U | ≤ -4.2 |
| C38U A41C C132U | -1.49 |
| C36U G42C U53A G59A U78A C87U | ≤ -4.2 |
| C38U C96A G141A | -0.0442 |
| C38U G59A A60C | -1.48 |
| C36U C103G | -3.78 |
| A39C G84A C85G U90G A91G U111A | ≤ -4.2 |
| A37C A49C G81A G92C A106G C108A A115U A137U G143U | ≤ -4.2 |
| A37U C54A C96G | -3.53 |
| A37G C51G A52G U53A A89C G136C A138U | ≤ -4.2 |
| A39G C96U | -2.18 |

| Variant | polymerase ribozyme fitness (log ratio) |
| --- | --- |
| A37C C108G | ≤ -4.2 |
| A39G C96U C125A | -2.58 |
| A39G G83A G117U A120C G152U | -4.11 |
| A37C G50U A52C U90C G94C C116U | ≤ -4.2 |
| A37G C54U G59C C69U | -1.86 |
| A39G A40G A41U G58A G59U U61A C79A U144A G152C | ≤ -4.2 |
| C38A C76A A97G U134G | -3.3 |
| C36U C87A G117U | ≤ -4.2 |
| A39U C54U C87A C99A G133U | ≤ -4.2 |
| A37C U45A C79U A97U U144A | ≤ -4.2 |
| A39G A49G G70A C87A G94A C99G G126A | ≤ -4.2 |
| C38U C85U U146G | -0.571 |
| A39C G50C G59C A97U C129A C149U | ≤ -4.2 |
| C38U A47U C54A A73G U78A A91U C114A A115U C116U G136C U146G | ≤ -4.2 |
| A37C C96U | -1.09 |
| C38A C69A G133C A150C | ≤ -4.2 |
| A37U A64C U135C | ≤ -4.2 |
| A39U G80A C123G | -2.65 |
| A37C C69G G70A C116A | -3.56 |
| A37C C38U U53A A91G | -3.98 |
| A37G G50U A97C A137G | -3.75 |
| A39U A47G U139G U151G | ≤ -4.2 |
| A37C A52G U82C C85G C95U C105U A142C A150G | ≤ -4.2 |
| C38G G92C C95U | -1.62 |

| Variant | polymerase ribozyme fitness (log ratio) |
| --- | --- |
| C38U A73G C103A | -3.99 |
| C36U C85U G124C | -2.46 |
| C38G A41U C79U G92C C123A | ≤ -4.2 |
| A39U A97U A119C | -3.36 |
| A39C C105U G124A | -2.08 |
| A39C G80A A97U G126U U144A | ≤ -4.2 |
| C36U C54A G68A G71A C95G A115U A122G | ≤ -4.2 |
| A39G A41G G46C C51G U56A A60C C72U A97G U111C C125A | ≤ -4.2 |
| C38G U45G U56A C93G C123A U127G | ≤ -4.2 |
| A39C G80U C114U | ≤ -4.2 |
| A39G G50A G81C U82C G92C G140A U151C G152C | ≤ -4.2 |
| A37U C79U C116A | -4.15 |
| A37U A52U C57U G74A C76U C93U C95U U109G | ≤ -4.2 |
| C38A A49C G67A C79G | ≤ -4.2 |
| C36U C87U | -1.6 |
| C38A G50C C96A | -4.12 |
| A37C C54U C96U | -0.249 |
| C36U A37U U56A A91C C116G | ≤ -4.2 |
| A37U A89U U146A | -1.62 |
| A37U C114U A115G A120U | -3.83 |
| C38A A60U G84A U134C | -1.6 |
| A37C C51U G58C C95G C118A | -3.66 |
| A37C C63G C99A U111C C114U A119U | ≤ -4.2 |
